From PMC6151396, “Production of Single-Chain Fv Antibodies Specific for GA-Pyridine, an Advanced Glycation End-Product (AGE), with Reduced Inter-Domain Motion” (Molecules : A Journal of Synthetic Chemistry and Natural …, 2017)
Numbering of substitutions follows the chain as printed. Numbers in names are those of the source.

B1: AGE73scFv displayed on phage (scFv, V domains shown)
VH: QVKLQQSGPSLVKPSQTLSLTCSVTGDSITSGYWNWIRKFPGNKFEYLGYISYSGRTYYNPSLKSRISITRDTSKNQYYLQLNSVTTEDTATYYCSRPYYRYDYAIDYWGQGTTVTVSS
VL: DIELTQSPAIMSASLGERVTMTCTASSSVSSSYLHWYQQKPGSSPKLWIYSTSNLASGVPARFSSSGSGTSYSLTISRMEAEDAATYYCQQSRKVPYTFGGGTKLEIK
notes: VH of AGE73scFv; as the VH of m1; (Gly-Gly-Gly-Gly-Ser)3 linker; VL of AGE73scFv; as the VL of m1
B2: 73MuL-V94A displayed on phage (scFv, V domains shown)
VH: B1 VH
VL: B1 VL with V95A
notes: as the VH of m1 (AGE73scFv); (Gly-Gly-Gly-Gly-Ser)3 linker; as the VL of m1 (AGE73scFv) with V94A; probably Kabat; source: second library, error-prone PCR of the VL of AGE73scFv
B3: AGE78scFv displayed on phage (scFv, V domains shown)
VH: B1 VH with Q6E, Q81H, S96T, Y100H, Y108F
VL: DIELTQSPAIMSASPGEKVTMTCSASSSVSYMHWYQQKPGFSPKLLIYRTSNLASGVPARFSGSGSGTSYSLTIGTMEAEDVATYYCQQGSSIPYTFGGGTKLEIK
notes: VH of AGE78scFv; (Gly-Gly-Gly-Gly-Ser)3 linker; VL of AGE78scFv
B4: 73MuL-S30P displayed on phage (scFv, V domains shown)
VH: B1 VH
VL: B1 VL with S31P
notes: as the VH of m1 (AGE73scFv); (Gly-Gly-Gly-Gly-Ser)3 linker; as the VL of m1 (AGE73scFv); source: second library, error-prone PCR of the VL of AGE73scFv
B5: AGE73scFv (scFv, V domains shown)
VH: B1 VH
VL: B1 VL
notes: VH of AGE73scFv, from the GA-KLH immunised mouse antibody library; (Gly-Gly-Gly-Gly-Ser)3 linker; VL of AGE73scFv, from the GA-KLH immunised mouse antibody library; the FLAG-tag lies on the N-terminal side of the hexahistidine-tag, so both are probably C-terminal of the scFv; also called anti-GA-pyridine scFv
B6: 73MuL-S56P displayed on phage (scFv, V domains shown)
VH: B1 VH
VL: B1 VL with S57P
notes: as the VH of m1 (AGE73scFv); (Gly-Gly-Gly-Gly-Ser)3 linker; as the VL of m1 (AGE73scFv); probably Kabat; source: second library, error-prone PCR of the VL of AGE73scFv
B7: AGE112scFv displayed on phage (scFv, V domains shown)
VH: B1 VH with Q6E
VL: DIELTQSPTTMAASPGEKITITCSASSSISSNYLHWYQQKPGFSPKLLIYSTSNLASGVPARFSGSGSGTSYSLTISSMEAEDAATYYCQQWSSNPYTFGGGTKLEIK
notes: VH of AGE112scFv; (Gly-Gly-Gly-Gly-Ser)3 linker; VL of AGE112scFv

Key:
[1] = target: T1, glycolaldehyde (GA)-modified bovine serum albumin (Bos taurus, UniProt P02769, modified by glycolaldehyde (GA-pyridine forms on the ε-amino group of Lys residues); sites not given); assay: ELISA; phage ELISA: GA-BSA coated on a 96-well plate, scFv display phage clones added for 1 h at 25 °C, detected with HRP-conjugated anti-M13 antibody; conditions: one partner purified
T1 construct: bovine serum albumin; The scFvs are directed against GA-pyridine, a modified lysine; also called GA-BSA; source: BSA (25 mg/mL) incubated with 50 mM glycolaldehyde at 37 °C for 12 h, dialysed with PBS
T1 sequence (P02769 25-607): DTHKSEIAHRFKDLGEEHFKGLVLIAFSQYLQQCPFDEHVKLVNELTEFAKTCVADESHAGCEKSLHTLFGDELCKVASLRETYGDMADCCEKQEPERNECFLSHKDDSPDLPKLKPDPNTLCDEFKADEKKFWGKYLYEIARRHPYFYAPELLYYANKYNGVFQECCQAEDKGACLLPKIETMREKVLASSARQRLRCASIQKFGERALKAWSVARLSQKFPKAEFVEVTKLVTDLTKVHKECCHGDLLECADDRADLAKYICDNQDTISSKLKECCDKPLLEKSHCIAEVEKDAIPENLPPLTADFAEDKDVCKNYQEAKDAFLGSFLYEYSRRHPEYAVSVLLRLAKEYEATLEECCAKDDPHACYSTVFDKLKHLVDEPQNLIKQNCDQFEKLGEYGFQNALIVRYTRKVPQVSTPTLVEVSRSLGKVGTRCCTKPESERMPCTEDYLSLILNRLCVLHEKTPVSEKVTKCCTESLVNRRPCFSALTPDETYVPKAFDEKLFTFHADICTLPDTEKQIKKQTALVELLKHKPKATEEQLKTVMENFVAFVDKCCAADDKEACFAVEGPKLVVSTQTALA

[2] = target: T1, glycolaldehyde (GA)-modified bovine …; assay: ELISA; competitive ELISA of purified AGE73scFv with AGE-modified BSAs as competitors; coated antigen and conditions not told in the text shown (Figure S2); conditions: both partners purified
[3] = target: T2, glyceraldehyde-modified BSA (Bos taurus, UniProt P02769, modified by glyceraldehyde; sites not given); assay: as above; conditions: both partners purified
T2 construct: bovine serum albumin; also called GCA-BSA
T2 sequence (P02769 25-607): as above

[4] = target: T3, glucose-derived AGE-modified BSA (Bos taurus, UniProt P02769, glucose-derived AGE modification; sites not given); assay: as above; conditions: both partners purified
T3 construct: bovine serum albumin; also called Glc-BSA
T3 sequence (P02769 25-607): as above

Row | Binder | binding result [1] | other results
1 | B1 | binds | –
2 | B2 | binds | –
3 | B3 | binds | –
4 | B4 | binds | –
5 | B5 | – | binding result [2]: binds; binding result [3]: binds; binding result [4]: binds
6 | B6 | binds | –
7 | B7 | binds | –
